This note sets out measurements from WO2013059531A1 (dated 2013).

Test [1] deals with solubilized, full length GCGR, biotinylated (from baculovirus particles) (Homo sapiens (Human)) (UniProt P47871). As to the kind of experiment: Octet BLI kinetics, biotinylated solubilized full length GCGR on streptavidin tips, Fab in solution.
Test [2] addresses T1, GCGR (glucagon receptor) on primary human hepatocytes (human, UniProt P47871 26-477).
T1 construct: Endogenous receptor on primary human hepatocytes (Celsis)
Kind of test: competition with 3 nM 125I-glucagon on primary human hepatocytes, gamma counting.

Sequence of solubilized, full length GCGR, biotinylated (from baculovirus particles) (Homo sapiens (Human)) (P47871 26-477): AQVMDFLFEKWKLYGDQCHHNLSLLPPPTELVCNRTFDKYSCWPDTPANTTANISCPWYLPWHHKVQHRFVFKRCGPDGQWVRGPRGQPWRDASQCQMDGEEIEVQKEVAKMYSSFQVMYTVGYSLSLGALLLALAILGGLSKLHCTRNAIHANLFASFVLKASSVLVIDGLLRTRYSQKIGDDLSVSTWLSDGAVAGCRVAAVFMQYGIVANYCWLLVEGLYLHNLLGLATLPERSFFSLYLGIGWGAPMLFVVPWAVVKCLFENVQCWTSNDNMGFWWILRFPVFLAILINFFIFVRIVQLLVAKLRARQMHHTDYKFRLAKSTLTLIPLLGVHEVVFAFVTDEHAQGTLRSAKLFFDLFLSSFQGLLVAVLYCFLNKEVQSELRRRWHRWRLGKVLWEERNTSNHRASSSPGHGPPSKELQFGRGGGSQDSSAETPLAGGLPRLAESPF
T1 sequence (P47871 26-477 limits assumed): as the sequence (P47871 26-477) above

B1: H6.23v3 Fab fragment (Fab, V domains shown)
VH: EVQLVESGGGLVQPGGSLRLSCAASGFNIYYNYIHWVRQAPGKGLEWVAEFSPYSGSTYYADSVKGRFTISADTSKNTAYLQMNSLRAEDTAVYYCARSAAIVDWYDYFKGFDYWGQGTLVTVSS
VL: DIQMTQSPSSLSASVGDRVTITCRASQSVSSAVAWYQQKPGKAPKLLIYSASSLYSGVPSRFSGSRSGTDFTLTISSLQPEDFATYYCQQYGSYLYTFGQGTKVEIK
In turn, B1 gave a fold increase in affinity (Kd) over H6.23v2 in test [1] of 3 fold.

B2: anti-GCGR antibody H6.23v3 (antibody, V domains shown)
VH: B1 VH
VL: B1 VL
Regarding B2, the binding result in test [2] was “binds”.
